This is an account of results in publication PMC4577081 (PLoS ONE, 2015).

Test [1] has as its target T1, cynoCD47/mFc fusion protein (extracellular domain of cynomolgus CD47 fused to mouse Fc) (Macaca fascicularis, UniProt A0A2K5X4I2).
T1 construct: cynomolgus monkey CD47 extracellular domain, cDNA cloned from a cynomolgus spleen cDNA library (BioChain); differs from human CD47 at 3 amino acids in the extracellular domain; also called cyno-CD47 Fc fusion protein; cynomolgus monkey CD47
Description: SPR; Biacore 2000; antibody amine coupled to a CM4 chip, CD47 constructs as analyte; 10 mM HEPES pH 7.4, 150 mM NaCl, 0.005% tween-20; 25°C; global fit to a 1:1 model with mass transport. The conditions noted are these: both partners purified. On the technique in general: In SPR one partner is held on a chip, and binding of the other changes the refractive index at the surface.

Test [2] has as its target T2, human CD47/mFc fusion protein (extracellular domain of human CD47 fused to mouse Fc) (human, UniProt Q08722).
T2 construct: human CD47 extracellular domain, cloned from a full-length human CD47 cDNA (Open Biosystems); also called huCD47/mFc; hCD47/mFc; source: purified recombinant
Description: ELISA; competition: plates coated with 1 μg/ml huCD47/mFc; 10 μg/ml biotin-labeled mouse 5F9 with various concentrations of unlabeled Hu5F9-G4, room temperature 1 hr; HRP-streptavidin. As to conditions: both partners purified.

Test [3] deals with T3, human CD47 on stably transfected rat YB2/0 cells (Homo sapiens, UniProt Q08722).
T3 construct: human CD47 expressed on the surface of YB2/0 cells; also called CD47-transfected YB2/0 cells; source: rat YB2/0 cells, stably transfected, on cells
The experiment in a line: flow cytometry on cells; hybridoma clones (supernatants) tested by FACS on parental or human CD47-transfected rat YB2/0 cells. As to conditions: partners not purified. In general terms: A flow cytometer gives signals particle by particle.

B1: Hu5F9-G4 (humanized 5F9 antibody, human IgG4 with Ser228Pro) (antibody, V domains shown)
VH: QVQLVQSGAEVKKPGASVKVSCKASGYTFTNYNMHWVRQAPGQRLEWMGTIYPGNDDTSYNQKFKDRVTITADTSASTAYMELSSLRSEDTAVYYCARGGYRAMDYWGQGTLVTVSS
VL: DIVMTQSPLSLPVTPGEPASISCRSSQSIVYSNGNTYLGWYLQKPGQSPQLLIYKVSNRFSGVPDRFSGSGSGTDFTLKISRVEAEDVGVYYCFQGSHVPYTFGQGTKLEIK
By Kd is commonly meant the concentration at which binding is half-saturated. A high value points to lower affinity. As for B1, binding in test [1] was characterised by a dissociation constant (Kd) of 0.01 nM.

B2: mouse anti-human CD47 monoclonal antibody 5F9 (antibody, V domains shown)
VH: QVQLQQPGAELVKPGASVMMSCKASGYTFTNYNMHWVKQTPGQGLEWIGTIYPGNDDTSYNQKFKDKATLTADKSSSAAYMQLSSLTSEDSAVYYCARGGYRAMDYWGQGTSVTVSS
VL: DVLMTQTPLSLPVSLGDQASISCRSSQSIVYSNGNTYLGWYLQKPGQSPKLLIYKVSNRFSGVPDRFSGSGSGTDFTLKISRVEAEDLGVYHCFQGSHVPYTFGGGTKVEIK
notes: mouse 5F9 VH (IGHV1 family); mouse heavy chain constant region; mouse 5F9 VL (IGKV1 subgroup); mouse light chain constant region; not described beyond the IGKV1 V segment; also called mouse 5F9; parental mouse 5F9; source: hybridoma (spleen cells of immunized Balb/c mice fused with SP2/0 cells); supernatant in the FACS screen; copies: 2 + 2
As for B2, the binding result in test [2] and in test [3] was “binds” each time.
